Here are results for one molecule from article PMC4281115, “pH-Dependent Conformational Changes in the HCV NS3 Protein Modulate Its ATPase and Helicase Activities”.

Usually Kd stands for the constant that tells how readily two partners part at equilibrium.

Data set [1] has as its target T1, NS3hel (NS3 helicase domain) (Hepatitis C virus genotype 1b …, UniProt Q9WMX2 1193-1657). In words: fluorescence anisotropy; pH 6.4, 2 mM MgCl2; 25 mM MOPS-NaOH pH 6.4 or 7.2, 2 mM MgCl2, 25 C; 25 nM 5-FAM-dT20 with 0-10 uM NS3hel or 0-5 uM NS3FL, 10 min (anisotropy); 1 uM protein with 0-1 uM ssDNA (Trp). The conditions noted are these: protein: recombinant; tags: N-terminal 6xHis-TEV, cleaved; label: 5'-carboxyfluorescein (5-FAM); single strand.

Data set [2] deals with T2, NS3FL (full-length NS3) (Hepatitis C virus genotype 1b …, UniProt Q9WMX2 1027-1657). The data set is described as above. The note with it: protein: recombinant; tags: C-terminal 6xHis; label: 5'-carboxyfluorescein (5-FAM); single strand.
Data set [3] concerns the target T1, NS3hel (NS3 helicase domain). In words: fluorescence anisotropy; pH 7.2, 2 mM MgCl2; 25 mM MOPS-NaOH pH 6.4 or 7.2, 2 mM MgCl2, 25 C; 25 nM 5-FAM-dT20 with 0-10 uM NS3hel or 0-5 uM NS3FL, 10 min (anisotropy); 1 uM protein with 0-1 uM ssDNA (Trp). The conditions noted are these: protein: recombinant; tags: N-terminal 6xHis-TEV, cleaved; label: 5'-carboxyfluorescein (5-FAM); single strand. A general note: Fluorescence polarisation rises when a labelled molecule tumbles more slowly, as on binding a larger partner.

Data set [4] deals with T2, NS3FL (full-length NS3). The data set is described as above. The note with it: protein: recombinant; tags: C-terminal 6xHis; label: 5'-carboxyfluorescein (5-FAM); single strand.

T2 sequence (Q9WMX2 1027-1657): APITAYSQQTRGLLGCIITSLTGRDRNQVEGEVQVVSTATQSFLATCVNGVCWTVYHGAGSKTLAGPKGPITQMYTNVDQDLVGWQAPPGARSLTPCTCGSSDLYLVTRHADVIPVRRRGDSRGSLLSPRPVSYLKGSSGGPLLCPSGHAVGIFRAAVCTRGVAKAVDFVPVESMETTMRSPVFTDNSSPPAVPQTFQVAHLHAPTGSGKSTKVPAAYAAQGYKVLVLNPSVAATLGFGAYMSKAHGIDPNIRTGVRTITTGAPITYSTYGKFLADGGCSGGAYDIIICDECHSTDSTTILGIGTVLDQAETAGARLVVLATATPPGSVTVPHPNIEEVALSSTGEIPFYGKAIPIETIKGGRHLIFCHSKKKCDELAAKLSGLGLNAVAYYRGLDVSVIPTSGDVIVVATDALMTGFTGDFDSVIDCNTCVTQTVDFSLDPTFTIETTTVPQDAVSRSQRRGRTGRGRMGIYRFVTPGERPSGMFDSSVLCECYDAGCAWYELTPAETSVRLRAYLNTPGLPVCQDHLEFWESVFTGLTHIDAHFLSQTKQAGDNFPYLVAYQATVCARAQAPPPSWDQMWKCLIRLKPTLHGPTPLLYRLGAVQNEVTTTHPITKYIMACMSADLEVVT
T1 sequence (Q9WMX2 1193-1657): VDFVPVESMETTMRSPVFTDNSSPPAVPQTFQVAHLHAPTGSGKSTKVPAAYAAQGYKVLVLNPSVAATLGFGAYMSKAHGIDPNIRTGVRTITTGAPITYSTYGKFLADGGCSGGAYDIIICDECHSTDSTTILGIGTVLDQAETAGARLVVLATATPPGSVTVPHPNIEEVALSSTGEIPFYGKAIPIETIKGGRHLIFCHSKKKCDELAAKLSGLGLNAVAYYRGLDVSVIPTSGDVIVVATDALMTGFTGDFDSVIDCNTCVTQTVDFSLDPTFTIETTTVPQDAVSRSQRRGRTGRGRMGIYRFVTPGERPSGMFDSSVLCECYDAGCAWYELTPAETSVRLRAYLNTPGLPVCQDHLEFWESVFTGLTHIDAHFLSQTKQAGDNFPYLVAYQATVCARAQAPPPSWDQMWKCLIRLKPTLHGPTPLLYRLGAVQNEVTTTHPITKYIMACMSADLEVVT

B1: 5-FAM oligo(dT)20 (ssDNA)
DNA: TTTTTTTTTTTTTTTTTTTT
B1: the Kd was approximately 42 nM in data set [1], approximately 28 nM in data set [2], approximately 254 nM in data set [3] and approximately 49 nM in data set [4].
